Here are results for one protein from publication doi:10.1101/2025.11.22.689886 (bioRxiv, 2025).

The series concerns the molecule itself. Briefly: SEC. (In gel filtration, larger molecules generally elute earlier.)

B1: transdermal peptide-recombinant type III collagen fusion protein (other, human)
chain: FEGPASRPGFPGMKGHRGFDGRNGEKGETGAPGLKGENGLPGENGAPGPMGPRGAPGERGRPGLPGAAGARGNDGARGSDGQPGPPGPPGTAGFPGSPGAKGEVGPAGSPGSNGAPGQRGEPGPQGHAGAQGPPGPPGINGSPGGKGEMGPAGIPGAPGLMGARGPPGPAGANGAPGLRGGAGEPGKNGAKGEPGPRGERGEAGIPGVPGAKGEDGKDGSPGEPGANG
For B1, the stoichiometry N (in general, the number of molecules, sites or subunits per partner or assembly) was found to be 3.
